Positions count from the first letter of the chain named. Names may count otherwise.

Experimental findings from patent US20250368745A1 (published 2025) are described below.

T1: human IL-18BP (human, UniProt O95998 31-194)
T1 construct: UniProt printed as 095998; also called hIL-18BP
T1 sequence: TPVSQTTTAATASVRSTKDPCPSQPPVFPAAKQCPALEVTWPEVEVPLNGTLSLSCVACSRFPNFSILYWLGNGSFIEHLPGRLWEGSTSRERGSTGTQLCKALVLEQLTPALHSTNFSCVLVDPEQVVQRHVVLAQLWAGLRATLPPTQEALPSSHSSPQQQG

B1: SA301a HC-G55A (antibody, name in Kabat numbering, V domains shown)
VH: QVQLQESGPGLVKPSQTLSLTCTVSGYSITSDYNSHWIRQPPGKGLEWIGYIHYSASTNYNPSLKSRVTISRDTSKNQFSLKLSSVTAADTAVYYCARNYGSIYVNYFDYWGQGTLVTVSS
VL: EIVLTQSPATLSLSPGERATLSCSASSSVSYMYWYQQKPGQAPRPLIYRTSNLASGIPARFSGSGSGTDFTLTISSLEPEDFAVYYCQQYHSYPTFGGGTKVEIK
notes: IgG1 kappa
B2: SA301a HC-N58Q (antibody, name in Kabat numbering, V domains shown)
VH: B1 VH with A56G, N59Q
VL: B1 VL
notes: IgG1 kappa
B3: SA301a HC-G55S (antibody, name in Kabat numbering, V domains shown)
VH: B1 VH with A56S
VL: B1 VL
notes: IgG1 kappa
B4: SA301a HC-N58K (antibody, name in Kabat numbering, V domains shown)
VH: B1 VH with A56G, N59K
VL: B1 VL
notes: IgG1 kappa
B5: SA301a HC-G55M (antibody, name in Kabat numbering, V domains shown)
VH: B1 VH with A56M
VL: B1 VL
notes: IgG1 kappa
B6: SA301a HC-G55Q (antibody, name in Kabat numbering, V domains shown)
VH: B1 VH with A56Q
VL: B1 VL
notes: IgG1 kappa
B7: SA301a HC-N58P (antibody, name in Kabat numbering, V domains shown)
VH: B1 VH with A56G, N59P
VL: B1 VL
notes: IgG1 kappa
B8: SA301a HC-G55H (antibody, name in Kabat numbering, V domains shown)
VH: B1 VH with A56H
VL: B1 VL
notes: IgG1 kappa
B9: SA301a HC-G55F (antibody, name in Kabat numbering, V domains shown)
VH: B1 VH with A56F
VL: B1 VL
notes: IgG1 kappa
B10: SA301a HC-N58E (antibody, name in Kabat numbering, V domains shown)
VH: B1 VH with A56G, N59E
VL: B1 VL
notes: IgG1 kappa
B11: SA301a HC-N58M (antibody, name in Kabat numbering, V domains shown)
VH: B1 VH with A56G, N59M
VL: B1 VL
notes: IgG1 kappa
B12: SA301a HC-N58H (antibody, name in Kabat numbering, V domains shown)
VH: B1 VH with A56G, N59H
VL: B1 VL
notes: IgG1 kappa
B13: SA301a HC-N58A (antibody, name in Kabat numbering, V domains shown)
VH: B1 VH with A56G, N59A
VL: B1 VL
notes: IgG1 kappa
B14: SA301a HC-G55T (antibody, name in Kabat numbering, V domains shown)
VH: B1 VH with A56T
VL: B1 VL
notes: IgG1 kappa
B15: SA301a HC-G55V (antibody, name in Kabat numbering, V domains shown)
VH: B1 VH with A56V
VL: B1 VL
notes: IgG1 kappa
B16: SA301a HC-G55K (antibody, name in Kabat numbering, V domains shown)
VH: B1 VH with A56K
VL: B1 VL
notes: IgG1 kappa
B17: SA301a HC-G55D (antibody, name in Kabat numbering, V domains shown)
VH: B1 VH with A56D
VL: B1 VL
notes: IgG1 kappa
B18: SA301a HC-N58G (antibody, name in Kabat numbering, V domains shown)
VH: B1 VH with A56G, N59G
VL: B1 VL
notes: IgG1 kappa
B19: SA301a HC-N58I (antibody, name in Kabat numbering, V domains shown)
VH: B1 VH with A56G, N59I
VL: B1 VL
notes: IgG1 kappa
B20: SA301a HC-G55R (antibody, name in Kabat numbering, V domains shown)
VH: B1 VH with A56R
VL: B1 VL
notes: IgG1 kappa
B21: SA301a HC-G55L (antibody, name in Kabat numbering, V domains shown)
VH: B1 VH with A56L
VL: B1 VL
notes: IgG1 kappa
B22: SA301a HC-G55Y (antibody, name in Kabat numbering, V domains shown)
VH: B1 VH with A56Y
VL: B1 VL
notes: IgG1 kappa
B23: SA301a HC-N58D (antibody, name in Kabat numbering, V domains shown)
VH: B1 VH with A56G, N59D
VL: B1 VL
notes: IgG1 kappa
B24: SA301a HC-G55E (antibody, name in Kabat numbering, V domains shown)
VH: B1 VH with A56E
VL: B1 VL
notes: IgG1 kappa
B25: SA301a LC-P95F (antibody, V domains shown)
VH: B1 VH with A56G
VL: B1 VL with P94F
B26: SA301a LC-P95A (antibody, V domains shown)
VH: B1 VH with A56G
VL: B1 VL with P94A
B27: SA301a LC-T96K (antibody, V domains shown)
VH: B1 VH with A56G
VL: B1 VL with T95K
B28: SA301a LC-T96E (antibody, V domains shown)
VH: B1 VH with A56G
VL: B1 VL with T95E
B29: SA301a LC-P95K (antibody, V domains shown)
VH: B1 VH with A56G
VL: B1 VL with P94K
B30: SA301a LC-T96A (antibody, V domains shown)
VH: B1 VH with A56G
VL: B1 VL with T95A
B31: SA301a LC-T96V (antibody, V domains shown)
VH: B1 VH with A56G
VL: B1 VL with T95V
B32: SA301a LC-T96D (antibody, V domains shown)
VH: B1 VH with A56G
VL: B1 VL with T95D
B33: SA301a LC-P95E (antibody, V domains shown)
VH: B1 VH with A56G
VL: B1 VL with P94E
B34: SA301a LC-T96Y (antibody, V domains shown)
VH: B1 VH with A56G
VL: B1 VL with T95Y
B35: SA301a LC-P95N (antibody, V domains shown)
VH: B1 VH with A56G
VL: B1 VL with P94N
B36: SA301a LC-Y94I (antibody, V domains shown)
VH: B1 VH with A56G
VL: B1 VL with Y93I
B37: SA301a LC-T96P (antibody, V domains shown)
VH: B1 VH with A56G
VL: B1 VL with T95P
B38: SA301a LC-P95Y (antibody, V domains shown)
VH: B1 VH with A56G
VL: B1 VL with P94Y
B39: SA301a LC-Y94A (antibody, V domains shown)
VH: B1 VH with A56G
VL: B1 VL with Y93A
B40: SA301a LC-Y94V (antibody, V domains shown)
VH: B1 VH with A56G
VL: B1 VL with Y93V
B41: SA301a LC-P95L (antibody, V domains shown)
VH: B1 VH with A56G
VL: B1 VL with P94L
B42: SA301a LC-Y94M (antibody, V domains shown)
VH: B1 VH with A56G
VL: B1 VL with Y93M
B43: SA301a LC-T96M (antibody, V domains shown)
VH: B1 VH with A56G
VL: B1 VL with T95M
B44: SA301a LC-T96I (antibody, V domains shown)
VH: B1 VH with A56G
VL: B1 VL with T95I

In the first assay the target is T1, human IL-18BP. In words: BLI, apparent KD.
Take B1: the Kd turned out to be 0.75 nM.
On the same count and under the same terms, then B2, with 0.62 nM; and B3, with 0.51 nM; and B4, with 0.34 nM.
For B5, the Kd was determined as 0.84 nM.
Still for that read-out and setting: to B6 belongs 0.79 nM; to B7, 0.41 nM; to B8, 1.31 nM.
Take B9: the Kd is 1.17 nM.
On to B10, for which the Kd turned out to be 2.5 nM.
Regarding B11, the Kd was determined as 0.23 nM.
On the same count and under the same terms, to B12 belongs 0.31 nM; to B13, 0.64 nM; to B14, 1 nM.
The same measure, in the same setting: to B15 belongs 0.44 nM.
Still for that read-out and setting: then B16, with 1.04 nM; and B17, with 1.37 nM.
Consider B18, for which the Kd was 4.39 nM.
Still for that read-out and setting: then B19, with 0.27 nM; and B20, with 0.75 nM.
Still for that read-out and setting: then B21, with 1.72 nM; and B22, with 2.33 nM.
Take B23: the Kd is 4.51 nM.
Regarding B24, the Kd came to 0.4 nM.

A further assay deals with T1, human IL-18BP. The experiment in a line: BLI, apparent KD. The source holds these as a separate data set. Background: In BLI a coated tip is dipped into the sample, and binding shifts an interference pattern.
On to B25, for which the Kd stood at 2.01 nM.
On the same count and under the same terms, then B26, with 0.26 nM; and B27, with 0.05 nM.
The same measure, in the same setting: then B28, with 0.31 nM; and B29, with 0.22 nM.
In the case of B30, the Kd was 0.17 nM.
On the same count and under the same terms, to B31 belongs 0.21 nM; to B32, 0.13 nM; to B33, 0.44 nM.
On the same count and under the same terms, to B34 belongs 0.22 nM; to B35, 0.32 nM.
The same measure, in the same setting: then B36, with 1.27 nM; and B37, with 0.26 nM.
Take B38: the Kd was 0.82 nM.
Same read-out and setting: to B39 belongs 1.15 nM; to B40, 2.35 nM.
In the case of B41, the Kd came to 2.18 nM.
Same read-out and setting: to B42 belongs 1.93 nM; to B43, 0.19 nM.
As to B44, the Kd is 0.12 nM.
